Measured values as given in patent publication US10253076B2, “Peptides and combination of peptides for use in immunotherapy against ovarian cancer and other cancers” (immatics biotechnologies GmbH, priority 2015, dated 2019).

The substances below were run against HLA-A*02:01 (Homo sapiens, UniProt P04439, D140Y/D185E/D98H/E176V/E277Q/G131W/G231S/I119V/I121R/I166T/I218V/L300P/L318F/N151K/N90K/P208A/P217A/Q86G/Q94H/R138H/R169H/T345S) (assay: MHC binding assay (UV-ligand exchange, beta2m ELISA, peptide exchange yield)). Conditions: binding of HLA-class I restricted peptides to HLA-A*02:01, ranged by peptide exchange yield (UV-ligand exchange, β2m ELISA).
How it was run: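 Readout is a β2m ELISA: stabilized complexes captured on streptavidin, detected with HRP-conjugated anti-β2m and TMB at 450 nm, reporting peptide exchange yield. Complexes come from UV-light cleavage of a conditional ligand in HLA-A*02:01 and replacement by the candidate peptide, samples diluted 100-fold.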

Substance | Peptide exchange
463 (SLVESHLSDQLTL; listed as Homo sapiens) [compound 463] | ″+++″ (≥50% = +++)
555 (YVLEGLKSV; listed as Homo sapiens) [compound 555] | ″+++″ (≥50% = +++)
353 (YLFEMDSSL; listed as Homo sapiens) [compound 353] | ″++″ (≥20% = ++)
204 (KIAENVEEV; listed as Homo sapiens) [compound 204] | ″++″ (≥20% = ++)
144 (YIMEPSIFNTL; listed as Homo sapiens) [compound 144] | ″+++″ (≥50% = +++)
538 (LLLAHIIAL; listed as Homo sapiens) [compound 538] | ″++″ (≥20% = ++)
195 (GLFADLLPRL; listed as Homo sapiens) [compound 195] | ″+++″ (≥50% = +++)
501 (LLDPNVKSIFV; listed as Homo sapiens) [compound 501] | ″+++″ (≥50% = +++)
585 (ALWDLAADKQTL; listed as Homo sapiens) [compound 585] | ″++++″ (≥75% = ++++)
170 (RLQETLSAA; listed as Homo sapiens) [compound 170] | ″+++″ (≥50% = +++)
174 (ALAQYLITA; listed as Homo sapiens) [compound 174] | ″+++″ (≥50% = +++)
197 (ALGPEGGRV; listed as Homo sapiens) [compound 197] | ″++″ (≥20% = ++)
179 (KVLNELYTV; listed as Homo sapiens) [compound 179] | ″+++″ (≥50% = +++)
284 (ILLSQTTGV; listed as Homo sapiens) [compound 284] | ″+++″ (≥50% = +++)
382 (ALQNYIKEA; listed as Homo sapiens) [compound 382] | ″++″ (≥20% = ++)
373 (SLLEDKGLAEV; listed as Homo sapiens) [compound 373] | ″++″ (≥20% = ++)

Substance | Peptide exchange
557 (KLYDDMIRL; listed as Homo sapiens) [compound 557] | ″+++″ (≥50% = +++)
528 (SVAEGRALMSV; listed as Homo sapiens) [compound 528] | ″+++″ (≥50% = +++)
472 (KLLEVSDDPQV; listed as Homo sapiens) [compound 472] | ″+++″ (≥50% = +++)
278 (QLLDVVLTI; listed as Homo sapiens) [compound 278] | ″++″ (≥20% = ++)
312 (IISDLTIAL; listed as Homo sapiens) [compound 312] | ″+++″ (≥50% = +++)
119 (FLYIGDIVSL; listed as Homo sapiens) [compound 119] | ″++++″ (≥75% = ++++)
241 (SLVEVNPAYSV; listed as Homo sapiens) [compound 241] | ″+++″ (≥50% = +++)
591 (SMAELDIKL; listed as Homo sapiens) [compound 591] | ″+++″ (≥50% = +++)
514 (ILVDWLVQV; listed as Homo sapiens) [compound 514] | ″+++″ (≥50% = +++)
578 (FLDPGGPMMKL; listed as Homo sapiens) [compound 578] | ″+++″ (≥50% = +++)
496 (FLVEKQPPQV; listed as Homo sapiens) [compound 496] | ″+++″ (≥50% = +++)
202 (ALLDQQGSRWTL; listed as Homo sapiens) [compound 202] | ″+++″ (≥50% = +++)
311 (RLYTGMHTV; listed as Homo sapiens) [compound 311] | ″+++″ (≥50% = +++)
451 (LLLLDTVTMQV; listed as Homo sapiens) [compound 451] | ″++″ (≥20% = ++)
258 (ELAERVPAI; listed as Homo sapiens) [compound 258] | ″++″ (≥20% = ++)
502 (RLLAQVPGL; listed as Homo sapiens) [compound 502] | ″+++″ (≥50% = +++)

The remaining lines, values ahead:

Peptide exchange | Substance
″+++″ (≥50% = +++) | 70 (GLLDYPVGV; listed as Homo sapiens) [compound 70]
″++″ (≥20% = ++) | 234 (ALMEDTGRQML; listed as Homo sapiens) [compound 234]
″+++″ (≥50% = +++) | 525 (VLLEAGEGLVTI; listed as Homo sapiens) [compound 525]
″+++″ (≥50% = +++) | 449 (KLAEGLDIQL; listed as Homo sapiens) [compound 449]
″+++″ (≥50% = +++) | 41 (SLMPHIPGL; listed as Homo sapiens) [compound 41]
″++″ (≥20% = ++) | 140 (YMDAPKAAL; listed as Homo sapiens) [compound 140]
″+++″ (≥50% = +++) | 298 (VMITKLVEV; listed as Homo sapiens) [compound 298]
″+++″ (≥50% = +++) | 309 (GLFDGVPTTA; listed as Homo sapiens) [compound 309]
″++″ (≥20% = ++) | 261 (YVLEFLEEI; listed as Homo sapiens) [compound 261]
″+++″ (≥50% = +++) | 267 (ALQDFLLSV; listed as Homo sapiens) [compound 267]
″+++″ (≥50% = +++) | 1 (SLMEPPAVLLL; listed as Homo sapiens) [compound 1]
″+++″ (≥50% = +++) | 181 (LLWAGTAFQV; listed as Homo sapiens) [compound 181]
″+++″ (≥50% = +++) | 82 (FLSSVTYNL; listed as Homo sapiens) [compound 82]
″++″ (≥20% = ++) | 412 (YLDDLNEGVYI; listed as Homo sapiens) [compound 412]
″+++″ (≥50% = +++) | 98 (LIIDQADIYL; listed as Homo sapiens) [compound 98]
″++″ (≥20% = ++) | 222 (NLIENVQRL; listed as Homo sapiens) [compound 222]
″++″ (≥20% = ++) | 242 (AIAYILQGV; listed as Homo sapiens) [compound 242]
″+++″ (≥50% = +++) | 122 (FLLAEDDIYL; listed as Homo sapiens) [compound 122]
″++++″ (≥75% = ++++) | 53 (KMIETDILQKV; listed as Homo sapiens) [compound 53]
″++″ (≥20% = ++) | 265 (LLFGGTKTV; listed as Homo sapiens) [compound 265]
″+++″ (≥50% = +++) | 345 (VIWKALIHL; listed as Homo sapiens) [compound 345]
″+++″ (≥50% = +++) | 369 (GLFPEHLIDV; listed as Homo sapiens) [compound 369]
″+++″ (≥50% = +++) | 107 (FLQPVDDTQHL; listed as Homo sapiens) [compound 107]
″+++″ (≥50% = +++) | 266 (KITDTLIHL; listed as Homo sapiens) [compound 266]
″+++″ (≥50% = +++) | 352 (SLLELLHIYV; listed as Homo sapiens) [compound 352]
″+++″ (≥50% = +++) | 564 (TVTNAVVTV; listed as Homo sapiens) [compound 564]
